# Patent US20220062341A1 (KIRIN, published 2022)
# Biological target: CD3 subunits (CD3E, CD3G, CD3D, CD3Z) (human, UniProt P07766 23-207; P09693 23-182; P04234 22-171; P20963 22-164)
# Assay: cell-based or functional assay
# Chain of CD3 subunits (CD3E, CD3G, CD3D, CD3Z) (P07766 23-207, chain 1 of 4): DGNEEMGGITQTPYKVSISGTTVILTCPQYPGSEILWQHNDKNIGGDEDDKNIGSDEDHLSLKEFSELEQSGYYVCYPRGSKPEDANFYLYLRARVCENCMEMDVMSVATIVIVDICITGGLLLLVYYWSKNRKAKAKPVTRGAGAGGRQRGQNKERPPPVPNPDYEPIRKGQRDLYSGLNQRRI
# Chain of CD3 subunits (CD3E, CD3G, CD3D, CD3Z) (P09693 23-182, chain 2 of 4): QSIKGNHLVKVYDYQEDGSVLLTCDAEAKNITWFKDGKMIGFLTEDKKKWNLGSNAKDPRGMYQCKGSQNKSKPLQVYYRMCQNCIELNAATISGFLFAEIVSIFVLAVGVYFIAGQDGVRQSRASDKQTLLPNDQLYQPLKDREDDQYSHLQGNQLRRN
# Chain of CD3 subunits (CD3E, CD3G, CD3D, CD3Z) (P04234 22-171, chain 3 of 4): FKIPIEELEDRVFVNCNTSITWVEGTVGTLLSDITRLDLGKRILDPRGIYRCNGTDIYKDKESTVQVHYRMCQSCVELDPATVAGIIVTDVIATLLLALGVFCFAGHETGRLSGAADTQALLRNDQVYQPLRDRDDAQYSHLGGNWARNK
# Chain of CD3 subunits (CD3E, CD3G, CD3D, CD3Z) (P20963 22-164, chain 4 of 4): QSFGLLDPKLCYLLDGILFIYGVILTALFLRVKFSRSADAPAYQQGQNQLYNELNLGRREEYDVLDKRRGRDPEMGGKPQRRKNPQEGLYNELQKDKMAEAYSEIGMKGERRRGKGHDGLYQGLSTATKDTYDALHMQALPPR
row,"CD3-recruiting activity (CD3-positive proportion, N=3), CD3-stably expressing 293T cells [%]",Binder
1,≥ 20,modified TCR consisting of β11 and α4 (TCR) TCR alpha: DVYITDKTVLDMRSMDFKSNSAVAWSNKSDFACANAFNNSIIPEDTFFPSPESSCDVKLVEKSFETDTNLNFQNLSVIGFRILLLKVAGFNLLMTLRLWSS TCR beta: EWTQDRAKPVTQIVSAEAWGRADCGFTSESYQQGVLSATILYEILLGKATLYAVLVSALVLMAMVKRKDSRG
2,≥ 20,modified TCR consisting of β11 and α5 (TCR) TCR alpha: LDMRSMDFKSNSAVAWSNKSDFACANAFNNSIIPEDTFFPSPESSCDVKLVEKSFETDTNLNFQNLSVIGFRILLLKVAGFNLLMTLRLWSS TCR beta: EWTQDRAKPVTQIVSAEAWGRADCGFTSESYQQGVLSATILYEILLGKATLYAVLVSALVLMAMVKRKDSRG
3,≥ 20,modified TCR consisting of β11 and α7 (TCR) TCR alpha: SNKSDFACANAFNNSIIPEDTFFPSPESSCDVKLVEKSFETDTNLNFQNLSVIGFRILLLKVAGFNLLMTLRLWSS TCR beta: EWTQDRAKPVTQIVSAEAWGRADCGFTSESYQQGVLSATILYEILLGKATLYAVLVSALVLMAMVKRKDSRG
4,≥ 20,modified TCR consisting of β10 and α7 (TCR) TCR alpha: SNKSDFACANAFNNSIIPEDTFFPSPESSCDVKLVEKSFETDTNLNFQNLSVIGFRILLLKVAGFNLLMTLRLWSS TCR beta: YGLSENDEWTQDRAKPVTQIVSAEAWGRADCGFTSESYQQGVLSATILYEILLGKATLYAVLVSALVLMAMVKRKDSRG
5,≥ 20,modified TCR consisting of β11 and α3 (TCR) TCR alpha: NVSQSKDSDVYITDKTVLDMRSMDFKSNSAVAWSNKSDFACANAFNNSIIPEDTFFPSPESSCDVKLVEKSFETDTNLNFQNLSVIGFRILLLKVAGFNLLMTLRLWSS TCR beta: EWTQDRAKPVTQIVSAEAWGRADCGFTSESYQQGVLSATILYEILLGKATLYAVLVSALVLMAMVKRKDSRG
6,≥ 20,modified TCR consisting of β10 and α10 (TCR) TCR alpha: IPEDTFFPSPESSCDVKLVEKSFETDTNLNFQNLSVIGFRILLLKVAGFNLLMTLRLWSS TCR beta: YGLSENDEWTQDRAKPVTQIVSAEAWGRADCGFTSESYQQGVLSATILYEILLGKATLYAVLVSALVLMAMVKRKDSRG
7,≥ 20,modified TCR consisting of β10 and α8 (TCR) TCR alpha: CANAFNNSIIPEDTFFPSPESSCDVKLVEKSFETDTNLNFQNLSVIGFRILLLKVAGFNLLMTLRLWSS TCR beta: YGLSENDEWTQDRAKPVTQIVSAEAWGRADCGFTSESYQQGVLSATILYEILLGKATLYAVLVSALVLMAMVKRKDSRG
8,≥ 20,modified TCR consisting of β11 and α8 (TCR) TCR alpha: CANAFNNSIIPEDTFFPSPESSCDVKLVEKSFETDTNLNFQNLSVIGFRILLLKVAGFNLLMTLRLWSS TCR beta: EWTQDRAKPVTQIVSAEAWGRADCGFTSESYQQGVLSATILYEILLGKATLYAVLVSALVLMAMVKRKDSRG
9,≥ 20,modified TCR consisting of β10 and α9 (TCR) TCR alpha: FNNSIIPEDTFFPSPESSCDVKLVEKSFETDTNLNFQNLSVIGFRILLLKVAGFNLLMTLRLWSS TCR beta: YGLSENDEWTQDRAKPVTQIVSAEAWGRADCGFTSESYQQGVLSATILYEILLGKATLYAVLVSALVLMAMVKRKDSRG
10,≥ 20,modified TCR consisting of β11 and α9 (TCR) TCR alpha: FNNSIIPEDTFFPSPESSCDVKLVEKSFETDTNLNFQNLSVIGFRILLLKVAGFNLLMTLRLWSS TCR beta: EWTQDRAKPVTQIVSAEAWGRADCGFTSESYQQGVLSATILYEILLGKATLYAVLVSALVLMAMVKRKDSRG
11,≥ 20,modified TCR consisting of β11 and α6 (TCR) TCR alpha: KSNSAVAWSNKSDFACANAFNNSIIPEDTFFPSPESSCDVKLVEKSFETDTNLNFQNLSVIGFRILLLKVAGFNLLMTLRLWSS TCR beta: EWTQDRAKPVTQIVSAEAWGRADCGFTSESYQQGVLSATILYEILLGKATLYAVLVSALVLMAMVKRKDSRG

# Second part, the binder before the results:
row,Binder,"CD3-recruiting activity (CD3-positive proportion, N=3), CD3-stably expressing 293T cells [%]"
1,modified TCR consisting of β10 and α3 (TCR) TCR alpha: NVSQSKDSDVYITDKTVLDMRSMDFKSNSAVAWSNKSDFACANAFNNSIIPEDTFFPSPESSCDVKLVEKSFETDTNLNFQNLSVIGFRILLLKVAGFNLLMTLRLWSS TCR beta: YGLSENDEWTQDRAKPVTQIVSAEAWGRADCGFTSESYQQGVLSATILYEILLGKATLYAVLVSALVLMAMVKRKDSRG,≥ 20
2,modified TCR consisting of β10 and α5 (TCR) TCR alpha: LDMRSMDFKSNSAVAWSNKSDFACANAFNNSIIPEDTFFPSPESSCDVKLVEKSFETDTNLNFQNLSVIGFRILLLKVAGFNLLMTLRLWSS TCR beta: YGLSENDEWTQDRAKPVTQIVSAEAWGRADCGFTSESYQQGVLSATILYEILLGKATLYAVLVSALVLMAMVKRKDSRG,≥ 20
3,modified TCR consisting of β10 and α4 (TCR) TCR alpha: DVYITDKTVLDMRSMDFKSNSAVAWSNKSDFACANAFNNSIIPEDTFFPSPESSCDVKLVEKSFETDTNLNFQNLSVIGFRILLLKVAGFNLLMTLRLWSS TCR beta: YGLSENDEWTQDRAKPVTQIVSAEAWGRADCGFTSESYQQGVLSATILYEILLGKATLYAVLVSALVLMAMVKRKDSRG,≥ 20
4,modified TCR consisting of β9 and α8 (TCR) TCR alpha: CANAFNNSIIPEDTFFPSPESSCDVKLVEKSFETDTNLNFQNLSVIGFRILLLKVAGFNLLMTLRLWSS TCR beta: FRCQVQFYGLSENDEWTQDRAKPVTQIVSAEAWGRADCGFTSESYQQGVLSATILYEILLGKATLYAVLVSALVLMAMVKRKDSRG,≥ 20
5,modified TCR consisting of β9 and α10 (TCR) TCR alpha: IPEDTFFPSPESSCDVKLVEKSFETDTNLNFQNLSVIGFRILLLKVAGFNLLMTLRLWSS TCR beta: FRCQVQFYGLSENDEWTQDRAKPVTQIVSAEAWGRADCGFTSESYQQGVLSATILYEILLGKATLYAVLVSALVLMAMVKRKDSRG,≥ 20
6,modified TCR consisting of β7 and α9 (TCR) TCR alpha: FNNSIIPEDTFFPSPESSCDVKLVEKSFETDTNLNFQNLSVIGFRILLLKVAGFNLLMTLRLWSS TCR beta: RLRVSATFWQNPRNHFRCQVQFYGLSENDEWTQDRAKPVTQIVSAEAWGRADCGFTSESYQQGVLSATILYEILLGKATLYAVLVSALVLMAMVKRKDSRG,≥ 20
7,modified TCR consisting of β9 and α9 (TCR) TCR alpha: FNNSIIPEDTFFPSPESSCDVKLVEKSFETDTNLNFQNLSVIGFRILLLKVAGFNLLMTLRLWSS TCR beta: FRCQVQFYGLSENDEWTQDRAKPVTQIVSAEAWGRADCGFTSESYQQGVLSATILYEILLGKATLYAVLVSALVLMAMVKRKDSRG,≥ 20
8,modified TCR consisting of β7 and α10 (TCR) TCR alpha: IPEDTFFPSPESSCDVKLVEKSFETDTNLNFQNLSVIGFRILLLKVAGFNLLMTLRLWSS TCR beta: RLRVSATFWQNPRNHFRCQVQFYGLSENDEWTQDRAKPVTQIVSAEAWGRADCGFTSESYQQGVLSATILYEILLGKATLYAVLVSALVLMAMVKRKDSRG,≥ 20
9,modified TCR consisting of β2 and α6 (TCR) TCR alpha: KSNSAVAWSNKSDFACANAFNNSIIPEDTFFPSPESSCDVKLVEKSFETDTNLNFQNLSVIGFRILLLKVAGFNLLMTLRLWSS TCR beta: ATLVCLATGFYPDHVELSWWVNGKEVHSGVSTDPQPLKEQPALNDSRYCLSSRLRVSATFWQNPRNHFRCQVQFYGLSENDEWTQDRAKPVTQIVSAEAWGRADCGFTSESYQQGVLSATILYEILLGKATLYAVLVSALVLMAMVKRKDSRG,≥ 20
10,modified TCR consisting of β2 and α8 (TCR) TCR alpha: CANAFNNSIIPEDTFFPSPESSCDVKLVEKSFETDTNLNFQNLSVIGFRILLLKVAGFNLLMTLRLWSS TCR beta: ATLVCLATGFYPDHVELSWWVNGKEVHSGVSTDPQPLKEQPALNDSRYCLSSRLRVSATFWQNPRNHFRCQVQFYGLSENDEWTQDRAKPVTQIVSAEAWGRADCGFTSESYQQGVLSATILYEILLGKATLYAVLVSALVLMAMVKRKDSRG,≥ 20
11,modified TCR consisting of β2 and α7 (TCR) TCR alpha: SNKSDFACANAFNNSIIPEDTFFPSPESSCDVKLVEKSFETDTNLNFQNLSVIGFRILLLKVAGFNLLMTLRLWSS TCR beta: ATLVCLATGFYPDHVELSWWVNGKEVHSGVSTDPQPLKEQPALNDSRYCLSSRLRVSATFWQNPRNHFRCQVQFYGLSENDEWTQDRAKPVTQIVSAEAWGRADCGFTSESYQQGVLSATILYEILLGKATLYAVLVSALVLMAMVKRKDSRG,≥ 20
12,modified TCR consisting of β2 and α9 (TCR) TCR alpha: FNNSIIPEDTFFPSPESSCDVKLVEKSFETDTNLNFQNLSVIGFRILLLKVAGFNLLMTLRLWSS TCR beta: ATLVCLATGFYPDHVELSWWVNGKEVHSGVSTDPQPLKEQPALNDSRYCLSSRLRVSATFWQNPRNHFRCQVQFYGLSENDEWTQDRAKPVTQIVSAEAWGRADCGFTSESYQQGVLSATILYEILLGKATLYAVLVSALVLMAMVKRKDSRG,≥ 20
13,modified TCR consisting of β10 and α6 (TCR) TCR alpha: KSNSAVAWSNKSDFACANAFNNSIIPEDTFFPSPESSCDVKLVEKSFETDTNLNFQNLSVIGFRILLLKVAGFNLLMTLRLWSS TCR beta: YGLSENDEWTQDRAKPVTQIVSAEAWGRADCGFTSESYQQGVLSATILYEILLGKATLYAVLVSALVLMAMVKRKDSRG,≥ 20
14,modified TCR consisting of β2 and α10 (TCR) TCR alpha: IPEDTFFPSPESSCDVKLVEKSFETDTNLNFQNLSVIGFRILLLKVAGFNLLMTLRLWSS TCR beta: ATLVCLATGFYPDHVELSWWVNGKEVHSGVSTDPQPLKEQPALNDSRYCLSSRLRVSATFWQNPRNHFRCQVQFYGLSENDEWTQDRAKPVTQIVSAEAWGRADCGFTSESYQQGVLSATILYEILLGKATLYAVLVSALVLMAMVKRKDSRG,≥ 20
